# In the supplement of paper PMC12764529:
# ± gives the half width of the 95% confidence interval.
# Experiment: folding stability dG unfold from trypsin proteolysis; higher = more stable
# Procedure: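 Folding stability of de novo designed mini-proteins (<80 aa, no Cys; designed by TrROS, TrMRF, ProteinMPNN and the joint model) was measured by cDNA display proteolysis with trypsin and chymotrypsin. Each protease was used at 11 concentrations in a threefold dilution series plus a no-protease condition. K50 was inferred by Bayesian fitting of sequencing counts, and dG unfold was derived against a sequence-predicted unfolded-state K50 (Tsuboyama et al. method). Sequences shown include variable-length N-terminal GS-type padding (SAGGSAGG...) inside a display construct carrying a PA tag. Rows were kept only if the AF2 dimer inter-PAE was >15, to exclude likely homo-oligomers.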
row,Sequence,folding stability dG unfold [kcal/mol]
1,SAGLTAKITSVTEENGTLTVTVEVTAPDGSTFTFTATFRIEPAPAPPVKVTVETDADGNVTVTVETLDSAGG [r19_172_TrROS_Hall],5.13 ± 0.28
2,SAGGMTVTVPREGPVTEEDVEKIAAELAAQGLKEVPLVVIETEKGSLPDGRPTELVRERTYYYEYPESAGGS [r16_44_JUSTAS],-0.307 ± 0.31
3,SAGGSAGGSAGGSMPVEILEVEEADPETGIRTYKLRDPVIGVESTIEGPLSPEEIEALLSAGGSAGGSAGGS [r4_228_JUSTAS],-0.808 ± 0.55
4,SAGGSSIPRALLEAMPPDAELEFEDPSSNVRIKVTRLGPDRLEITTTVYPPGPDTPVSSETTTDPLASAGGS [r16_163_JUSTAS],0.371 ± 0.11
5,SAGGSAGGSSMPLTVEELLASVGPDKTATVLVPPGTSIPANITPLGTEPEGGWRTFAIPASLVSAGGSAGGS [r12_356_JUSTAS],-0.137 ± 0.12
6,SAGGSTTITVPEEELEKKTGIPLGTPPEEVARKLDPVAKVTVTAVSSEKGPNGEPKRTVTFEVTPPQLSAGG [r13_723_JUSTAS],-0.236 ± 0.14
7,SAGGSAGGSAGGMVRFPDGKEVETESEEELEELLKGVPVEEITIEDPEEKGEKKIPVKLSAGGSAGGSAGGS [r10_1191_JUSTAS],0.137 ± 0.044
8,SAGGSAGGAEITIELTEDGTLRITVDGKKLEIRLEPAPPPVEVKTERVLDPDTDELTTRTETVLSAGGSAGG [r6_34_TrROS_Hall],0.203 ± 0.19
9,SAGGSAGGMVTVELPGLPTPEEARARAEEVVAAIVAAGHPGEEVTLTVVYPGSGAAETFTVPLASAGGSAGG [r6_238_JUSTAS],0.225 ± 0.059
10,SAGMVTFIDTTPGKAVVAVEDPATGTSRTIELDLDSPDGRPASLEEIKKVVEELVKEERPDLTVDVKLASAG [r5_293_JUSTAS],-0.506 ± 0.15
11,SAGGSAGGSAGSLPEKLKEAFPDLGVTVTSVDPSGTVTVEVDGPEEVKEKVEKAVAEILKSAGGSAGGSAGG [r11_418_JUSTAS],-0.576 ± 0.33
12,SAGGSAGGSAGGSKKTLPFPSVEDVVKYLKDLGLKDVKVDLPPGDLTINLDEIEEALKESAGGSAGGSAGGS [r4_101_TrMRF],-0.957 ± 0.57
13,SAGGSAGGSMKPEVVEEIIKKAEEEGYEIDSVTVNPETNVPVIHFNWPSPELAEKDPELREAASAGGSAGGS [r12_482_TrMRF],0.13 ± 0.12
14,SAGGSAGGSAGEEIIRAAKEAAKAGKKVRIVVPKGMSAEEIAKKLAEELNIEKVEVYELPSAGGSAGGSAGG [r11_524_TrROS_Hall],0.332 ± 0.086
15,SAGGSAGGSAGGIEELAKKYPNIKIVEVKTVKVTETNKDGKKTEKTKTEIKIYKDGEEISAGGSAGGSAGGS [r10_0_TrROS_Hall],-0.0124 ± 0.2
16,SAGGSAGGSAGGVVKFPDDVLIERVETLPDGTVKIKVYKRIPGKGSPVEEIEFEDPGSSSAGGSAGGSAGGS [r10_934_JUSTAS],0.235 ± 0.024
17,SAGGMNPDNFKPVRTYTLPFDGHKIEVEVWEPPNGNPLIPIQLEDDNGKPKGPQWIPPDQIDENGKILSAGG [r13_447_TrROS],0.343 ± 0.091
18,SAGGSETITIEIEINGAKIKLTFTKNEDGTLTVTAEITLPNGKKLRVTMEFDKKTKEWKITSIEPVSAGGSA [r2_402_TrROS_Hall],4.37 ± 0.39

row,Sequence,folding stability dG unfold [kcal/mol]
1,SYRPITIQMPSPEDLKKLEEAFEDDGFENVNIHRDPPGWHTITITQKGPPEQLQDRIREAFDENGFQIQPSA [r9_1003_TrROS],0.0855 ± 0.11
2,SAKIPAEEIAEEIAENFGFEPVEVDEIDPDEGKIIIRFPGWQIEVEVDPEDGEIEIEMEFYDPEDGKPFSAG [r14_270_TrROS],0.46 ± 0.045
3,SAGGSAGGSAGREEVEEAIRAGETVTLEEKSPEGVIPVITVRAEFPDPDKVLVETEVKPLSAGGSAGGSAGG [r11_710_JUSTAS],0.455 ± 0.083
4,SAGGSAGGSAGGMNTNPKFVSEEDDKEIYREYNPSTGKETYIIYYPKPNTKKIVPPELISAGGSAGGSAGGS [r10_172_JUSTAS],-0.634 ± 0.23
5,SAGSTVEVLEERPLEDGSVLVRVRVDDAAPDGSPVAVVDVLVLPGGEAVMTFPDGTPVRLPLSELGLPPSAG [r5_137_JUSTAS],0.108 ± 0.14
6,SAGGSAGGSAGPEIRVDDLEDGVVRITTVNVDPSTGAPVATTTTTLPRESLSPEVVALLSSAGGSAGGSAGG [r11_376_JUSTAS],0.046 ± 0.038
7,SAGSMTVSESTENGVRTTTVTLPSRPLTVTVTFPDGKVTATTTDPAAPEAATTTPLGTPAVETLIAELSSAG [r14_716_JUSTAS],0.083 ± 0.051
8,SAGGSAGGSASAPADETLTAELTSPESDERYTVLVTPEGMTAVDEAGRTTPLSPAVLVSVTAPSAGGSAGGS [r20_35_JUSTAS],0.862 ± 0.034
9,SAGGSAGGSAGKITIHMDPEGNYMVKTPGNERQFDSPEDADELADEFLLNGLPIEIHPHPSAGGSAGGSAGG [r17_35_TrROS],-0.753 ± 0.36
10,SMKLKITIPLPGNNEINIEIEIKPYFDPNTKKLYFEANIKVTFTYYIPGFDKPFSFTSEFKFRFELSDDLSA [r9_140_TrMRF],4.46 ± 0.16
11,SETVTIEVEIEVKLPDGSTYRVRLTVEFDKETGKITLKMTVEYNGKTYEVELSEEEIKALLDELLKKLGLSA [r9_1136_TrROS_Hall],4.22 ± 0.29
12,SAGGSAGGSAGGSGPEPKFTVEVDPEKDEVTFLVELEDKPLLLVVKDWPEDDPLLKNAFSAGGSAGGSAGGS [r4_328_TrMRF],0.388 ± 0.097
13,SAGGSAGGSAGMTISLSDLTKKGDIEKAKEEVEEIKKKNPEPKVEKVSVPPEKNEIYKLESAGGSAGGSAGG [r11_365_JUSTAS],-0.308 ± 0.22
14,SAGGMTKPTSSPSPLDPSTPPEEWIAAIEKELPPDWRIVEPRPRPGPRLVTVLAEDPNSGKRVILRASAGGS [r16_250_JUSTAS],-0.989 ± 0.55
15,SAGSAKELAKEIADTIADEMQDRHPGFKPTEVEVKEIEVNPENGWVKINIEMRFPNGKPIWKPEITIPSAGG [r19_53_TrROS],-0.0323 ± 0.058
16,SAGGMSKEEARKAIENPADATYTFTITTRPSTPTPSSTTTTVTAKVTDPDAFLDAVPEGHSVTVTASSAGGS [r16_116_JUSTAS],-0.465 ± 0.14
17,SAKLTPEEIEELAEKLAKELAEKEGIEKVEVKVEKKEDGKVTVEIRFEKNKKTIRIEFENGEVKIVEIESAG [r14_925_TrROS_Hall],2.62 ± 0.39
18,SAGGSAMPPEWQREVVLTPVEIDIPEPPEVEVVEYDPSTGTITISVPKSPLTLTYDALTGTVHTIGSAGGSA [r15_452_JUSTAS],-0.488 ± 0.61
